From article PMC3486911 (PLoS Pathogens, 2012)
“And” between values parts separate entries of the source, which are not always exact repeats. Identical values can stand only once. Like-named read-outs stand apart in the source and are kept apart here.

Experiments:
Assay in all cases: SPR
[1] = biological target: V1 fHbp (V1.p1), wild type (Neisseria meningitidis) (UniProt Q9JXV4)
[2] = biological target: V2 fHbp (V2.p21), wild type (Neisseria meningitidis) (UniProt E6MV22)
[3] = biological target: V2 fHbp Gln191 mutant (to Ala) (Neisseria meningitidis)
[4] = biological target: V2 fHbp Glu262 mutant (to Ala) (Neisseria meningitidis)
[5] = biological target: V2 fHbp His203 mutant (to Ala) (Neisseria meningitidis)
[6] = biological target: V2 fHbp Leu199 mutant (to Ala) (Neisseria meningitidis)
[7] = biological target: V2 fHbp Lys264 mutant (to Ala) (Neisseria meningitidis)
[8] = biological target: V2 fHbp Lys268 mutant (to Ala) (Neisseria meningitidis)
[9] = biological target: V2 fHbp Ser302 mutant (to Ala) (Neisseria meningitidis)
[10] = biological target: V2 fHbp Thr304 mutant (to Ala) (Neisseria meningitidis)
[11] = biological target: V2 fHbp Val196 mutant (to Ala) (Neisseria meningitidis)
[12] = biological target: V1 fHbp (V1.p1), wild type (Neisseria meningitidis) (UniProt Q9JXV4); remark: listed apart in the source
[13] = biological target: V3 fHbp (V3.p28), wild type (Neisseria meningitidis) (UniProt E6MV22)
[14] = biological target: V3 fHbp Ala99Glu (Neisseria meningitidis)
[15] = biological target: V3 fHbp Asn123 mutant (to Ala) (Neisseria meningitidis)
[16] = biological target: V3 fHbp Asn48 mutant (to Ala) (Neisseria meningitidis)
[17] = biological target: V3 fHbp Asp126 mutant (to Ala) (Neisseria meningitidis)
[18] = biological target: V3 fHbp Asp43 mutant (to Ala) (Neisseria meningitidis)
[19] = biological target: V3 fHbp Asp92 mutant (to Ala) (Neisseria meningitidis)
[20] = biological target: V3 fHbp Gln134 mutant (to Ala) (Neisseria meningitidis) (UniProt E6MV22)
[21] = biological target: V3 fHbp Gln87 mutant (to Ala) (Neisseria meningitidis) (UniProt E6MV22)
[22] = biological target: V3 fHbp His190 mutant (to Ala) (Neisseria meningitidis)
[23] = biological target: V3 fHbp Ile122 mutant (to Ala) (Neisseria meningitidis)
[24] = biological target: V3 fHbp Ile96 mutant (to Ala) (Neisseria meningitidis)
[25] = biological target: V3 fHbp Leu98 mutant (to Ala) (Neisseria meningitidis)
[26] = biological target: V3 fHbp Lys127 mutant (to Ala) (Neisseria meningitidis)
[27] = biological target: V3 fHbp Pro125 mutant (to Ala) (Neisseria meningitidis)
[28] = biological target: V3 fHbp Pro46 mutant (to Ala) (Neisseria meningitidis)
[29] = biological target: V3 fHbp Ser44 mutant (to Ala) (Neisseria meningitidis)
[30] = biological target: V3 fHbp Thr128 mutant (to Ala) (Neisseria meningitidis)
[31] = biological target: V3 fHbp Val114 mutant (to Ala) (Neisseria meningitidis)
[32] = biological target: V3 fHbp Val91 mutant (to Ala) (Neisseria meningitidis)

human factor H CCP 6 and 7 (fH67) (domain or fragment)
Kd [1]: 2.85 nM | Kd [2]: 2.15 nM and 1.85 nM | Kd [3]: 2.6 nM | Kd [4]: 5.3 nM | Kd [5]: 2.65 nM | Kd [6]: 15.5 nM | Kd [7]: 9.05 nM | Kd [8]: 2.25 nM | Kd [9]: 4.05 nM | Kd [10]: 8.2 nM | Kd [11]: 23 nM | Kd [12]: 2.05 nM | Kd [13]: 2.35 nM | Kd [14]: 74.5 nM | Kd [15]: 8 nM | Kd [16]: 3.65 nM | Kd [17]: 6.4 nM | Kd [18]: 3.2 nM | Kd [19]: 4.75 nM | Kd [20]: 2.65 nM | Kd [21]: 0.715 nM | Kd [22]: 3.35 nM | Kd [23]: 10.2 nM | Kd [24]: 14.5 nM | Kd [25]: 87 nM | Kd [26]: 2.95 nM | Kd [27]: 3.3 nM | Kd [28]: 0.028 nM | Kd [29]: 9.9 nM | Kd [30]: 4.2 nM | Kd [31]: 3.25 nM | Kd [32]: 6.05 nM
